Experimental data: article PMC6517241 (Chembiochem : a European journal of chemical biology, 2019)

Experiments:
[1] = tested on: SH-SY5Y human neuroblastoma cells; assay: Flow cytometry quantitation of cellular uptake, SH-SY5Y; assay type: cell-based
Cellular toxicity = assay type: cell-based; conditions: Figure S6
[2] = ref 5b; cited from earlier work

| Substance | Potency of L- and D-enantiomers as pore-forming antibacterial peptides [2] | other results |
| --- | --- | --- |
| L-Aβ42-TAMRA: L-Aβ42 N-terminally labeled with 5(6)-Carboxytetramethylrhodamine (TAMRA) |  | Cell fluorescence after incubation at 4 °C (membrane binding) ([1]; SH-SY5Y, 2 h, 4 °C, flow cytometry (Figure S12)): low fluorescence; Influence of N-terminal TAMRA modification on cellular toxicity (Cellular toxicity): not influence cellular toxicity to any significant degree |
| magainin | equally potent |  |
| melittin | equally potent |  |
| L-Aβ42: natural L-stereoisomer of the 42 amino acid isoform of Amyloid β |  | Fraction taken up through chirality-dependent mechanisms (class I) ([1]; interpretation of the ~5:1 ratio): approximately 80% |
| cecropin | equally potent |  |
